# Results: patent US20230038866
# Where two headings read alike, the source gives them in different places.
# Legend:
# [1] = biological target: membrane-bound immunoglobulin heavy mu chain (B-cell receptor, IgM) on Ramos lymphoma cells (Homo sapiens) (UniProt P01871); details: confocal staining of Ramos xenograft brain slices, 1.0 uM, 10 min on ice, 6 mM MgCl2, 1.2 mM CaCl2, PBS, yeast tRNA; U251 glioma 0.81% and normal brain 0.80% …
# [2] = biological target: membrane-bound immunoglobulin heavy mu chain (B-cell receptor, IgM) on Ramos lymphoma cells (Homo sapiens) (UniProt P01871); details: confocal staining of Ramos xenograft brain slices, 1.0 uM, 10 min; target not purified
# UniProt P01871, sequence (P01871 1-450): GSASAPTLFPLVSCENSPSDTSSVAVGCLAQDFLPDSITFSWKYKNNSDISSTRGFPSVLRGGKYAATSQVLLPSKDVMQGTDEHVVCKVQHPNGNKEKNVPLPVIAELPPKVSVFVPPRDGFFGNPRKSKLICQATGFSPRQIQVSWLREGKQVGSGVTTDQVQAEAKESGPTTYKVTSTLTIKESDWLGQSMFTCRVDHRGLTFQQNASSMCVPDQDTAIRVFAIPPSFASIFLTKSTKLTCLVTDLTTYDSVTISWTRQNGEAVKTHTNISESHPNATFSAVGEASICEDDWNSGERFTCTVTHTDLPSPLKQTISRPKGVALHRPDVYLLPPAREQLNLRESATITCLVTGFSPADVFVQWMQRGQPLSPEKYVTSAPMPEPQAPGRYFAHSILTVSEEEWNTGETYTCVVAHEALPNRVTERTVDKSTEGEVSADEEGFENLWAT
Substance,binding (% cells labeled) [1],binding (% cells labeled) [2]
AGGAGGATAGTTCGGTGGCTGTTCAGGGTCTCCTCCT [TD05-488],76.7,
nonspecific Alexa Fluor 488 aptamer,,2.71
